Data from article PMC2714988, “Dimerization of Hepatitis E Virus Capsid Protein E2s Domain Is Essential for Virus–Host Interaction” (PLoS Pathogens, 2009).

How the values were obtained:
[1] = biological target: E2-D496A (Hepatitis E virus) (UniProt Q81871); assay: non-reducing SDS-PAGE; loading buffer with only 0.1% SDS, no BME, sample not boiled; compared with MW markers
[2] = biological target: E2-E479A (Hepatitis E virus) (UniProt Q81871); assay: as above
[3] = biological target: E2-I529A (Hepatitis E virus) (UniProt Q81871); assay: as above
[4] = biological target: E2-K534A (Hepatitis E virus) (UniProt Q81871); assay: as above
[5] = biological target: E2-R542A (Hepatitis E virus) (UniProt Q81871); assay: not stated; 'in solution'; the paragraph names non-reducing SDS-PAGE, analytical ultracentrifugation and gel filtration for the mutants without telling which was used here
[6] = biological target: E2-Y485A (Hepatitis E virus) (UniProt Q81871); assay: non-reducing SDS-PAGE; loading buffer with only 0.1% SDS, no BME, sample not boiled; compared with MW markers
[7] = biological target: E2s-Y557A (Hepatitis E virus) (UniProt Q81871); assay: AUC; sedimentation equilibrium; 20°C; phosphate-buffered saline pH 7.4; E2s at 0.69, 0.36 and 0.14 OD; 18,000, 21,000 and 24,000 rpm; single ideal species model and self-association monomer-dimer model; dimer to monomers
[8] = biological target: HEV capsid protein domain E2s (ORF2 aa455-602) (Hepatitis E virus) (UniProt Q81871); assay: AUC; sedimentation velocity; 20°C; E2s 1 mg/ml in phosphate-buffered saline pH 7.4; 60,000 rpm; c(s) method
[9] = biological target: HEV capsid protein domain E2s (ORF2 aa455-602) (Hepatitis E virus) (UniProt Q81871); assay: AUC; sedimentation equilibrium; 20°C; phosphate-buffered saline pH 7.4; E2s at 0.69, 0.36 and 0.14 OD; 18,000, 21,000 and 24,000 rpm; single ideal species model and self-association monomer-dimer model; dimer to monomers
[10] = biological target: HEV capsid protein domain E2s (ORF2 aa455-602) (Hepatitis E virus) (UniProt Q81871); assay: SEC; Superdex 75 10/300GL in phosphate-buffered saline pH 7.4, 0.5 ml/min, against molecular weight standards
[11] = biological target: HEV capsid protein E2 (ORF2 aa394-606), wild type (Hepatitis E virus, UniProt Q81871 394-606); assay: non-reducing SDS-PAGE; loading buffer with only 0.1% SDS, no BME, sample not boiled; compared with MW markers; conditions: both partners purified

## E2-D496A (from UniProt Q81871 394-606) (domain or fragment)
[1]
  stoichiometry N: 2

## E2-E479A (from UniProt Q81871 394-606) (domain or fragment)
[2]
  stoichiometry N: 2

## E2-I529A (from UniProt Q81871 394-606) (domain or fragment)
[3]
  stoichiometry N: 2

## E2-K534A (from UniProt Q81871 394-606) (domain or fragment)
[4]
  stoichiometry N: 2

## E2-R542A (from UniProt Q81871 394-606) (domain or fragment)
[5]
  stoichiometry N: 2

## E2-Y485A (from UniProt Q81871 394-606) (domain or fragment)
[6]
  stoichiometry N: 2

## E2s-Y557A (from UniProt Q81871 455-602) (domain or fragment)
[7]
  stoichiometry N: 2

## HEV capsid protein domain E2s (ORF2 aa455-602) (from UniProt Q81871 455-602) (domain or fragment)
[8]
  stoichiometry N: 2
[9]
  Kd: 397 nM
  stoichiometry N: 2
[10]
  stoichiometry N: 2

B1: HEV capsid protein E2 (ORF2 aa394-606), wild type (domain or fragment)
chain: MQLFYSRPVVSANGEPTVKLYTSVENAQQDKGIAIPHDIDLGESRVVIQDYDNQHEQDRPTPSPAPSRPFSVLRANDVLWLSLTAAEYDQSTYGSSTGPVYVSDSVTLVNVATGAQAVARSLDWTKVTLDGRPLSTIQQHSKTFFVLPLRGKLSFWEAGTTKAGYPYNYNTTASDQLLVENAAGHRVAISTYTTSLGAGPVSISAVAVLAPHSA
modifications: Wild-type E2, aa394-606, with start Met. The E2s gene was amplified from this E2 gene, so aa455-602 are taken from 3GGQ; the flanks come from genotype 1 Q81871 because the strain is not printed. …
[11]
  stoichiometry N: 2
